This is an account of results in the RNAGym collection of RNA variant scans (doi:10.1073/pnas.2313332121).

B1: TPR t1 (parent)
chain: GACCAAUCUGCCCUCAGAGCUCGAGAACAUCUUCGGAUGCAGAGGAGGCAGGCUUCGGUGGCGCGAUAGCGCCAACGUCCUCAACCUCCAAUGCAUCCCACCACAUGAUGAUGCCUGAAGAGCCUUGGUUUUUUG

The variants in this series derive from B1. Kind of series: polymerase ribozyme fitness, log enrichment relative to wild type (log ratio); higher = more active; in vitro selection for triplet polymerase activity. The procedure, abridged:
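Genotype fitness is the logarithm of its enrichment divided by wild-type enrichment, using inverse-variance-weighted averages of replicates. That logarithm is base 2. Enrichment was measured by Illumina sequencing of input and output libraries from one triplicate in vitro selection round, with frozen incubation at −7 °C, on PCR-built, transcribed mutant libraries of each subunit of a heterodimeric triplet polymerase ribozyme, retaining genotypes with ≥10 input reads and ≥1 read per output.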
As to C12G A43U, the “polymerase ribozyme fitness (log ratio)” value is -0.979.

Turning to C12U G69U U78G A100U, the “polymerase ribozyme fitness (log ratio)” value was -0.359. Next, U54A G113U C114G A121C: -2.43; C12A C49U G69U U109A U116A C123G: -5.67. As for C40U A68U A74U C97U C102A A111G, the figure is -7.15; as for C8U C20A A26C G60C, -5.68; as for A2U C13U C72G C114U, -3.41. As for G69A A121U U126G, the figure is -2.09; as for C3U C11A G47A C72A G110U, -2.89; as for A50G G63U C101G G120C U130G, -3.55. Take C85U C101G C115A: the “polymerase ribozyme fitness (log ratio)” value was -2.93. Next, C31G C88A G110U C115A: -7.42; C22U A37C: -4.23; A5U G52U U54A: -1.51. Turning to U14G C123U, the “polymerase ribozyme fitness (log ratio)” value is -0.161. Next, G39U G61U G110U: -2; U14G A46U A74G C101A: -3.18; G17A U38A U59G C115U G117U: -3.04. As for G17U U21A, the figure is -3.26; as for A91U U96A, -2.42. As for G48A C73A G127C, the figure is -1.15; as for G17U C34A, -3.65.

With U33G G52C U78A C98A U112G U116G, the “polymerase ribozyme fitness (log ratio)” value is -7.02. Next, C11A G48A C70U C114U: -6.22. Next, G42U C73U: -1.51. Take G42U C73A: the “polymerase ribozyme fitness (log ratio)” value is -1.55. As for C12U U129A, the figure is -0.808; as for U54A C94A G113U, -3.97; as for U7C A27G U92A, -3.82. As for U14G A50C C101A, the figure is -3.99. As for C11U C56A U116C, the figure is -2.85; as for G48A C80A, -2.53. With C70G C86A, the “polymerase ribozyme fitness (log ratio)” value was -4.89. Next, U9G C104U C124U: 1.88; G61U G63A: -4.12; C76G U87G: -0.0658. As for A50G C64U A84U, the “polymerase ribozyme fitness (log ratio)” value was -0.379. Next, G61A G127U: -1.35. As for C12U G122U, the figure is 1.06; as for C49A U96G, -0.658; as for G57C U125A, -0.636. As for C12U A75G U92A, the figure is -2.45; as for U33C C79G A111U, -7.17. For the variant A27U A43U, the “polymerase ribozyme fitness (log ratio)” value is -5.8.

On to C8G C56A U78C G93A C123U, for which the “polymerase ribozyme fitness (log ratio)” value is 1.31. Next, A5C C8U C34A C79U C101G: -3.49; G60C A84U U116C: -0.854; C72A C80U C88U: -0.793. As for C12U C56A, the figure is -0.454. Take G63U C85U G110U: the “polymerase ribozyme fitness (log ratio)” value is -4.39. C12U C86A: the “polymerase ribozyme fitness (log ratio)” value came out at 0.101. As for C8A U9G C85G C89A U126G G127C, the figure is -2.22; as for G39A C72G A105G, -2.86.

As for G69A U130A U133G, the “polymerase ribozyme fitness (log ratio)” value was -2.25. As for U54G C56G A83C, the figure is -2.03. For C28G C98U C124U, the “polymerase ribozyme fitness (log ratio)” value was -3.04. Take C11A G71U C104A U129G G135U: the “polymerase ribozyme fitness (log ratio)” value was -5.56. Next, A27C G120A: -3.

For the variant G10U C20A A50C C102A C114U, the “polymerase ribozyme fitness (log ratio)” value is -6.03. Consider A121G U133G, for which the “polymerase ribozyme fitness (log ratio)” value stood at 1.55.

In the case of C8U G44C A83U, the “polymerase ribozyme fitness (log ratio)” value was -0.336. For the variant U9A C49A C56U C73A, the “polymerase ribozyme fitness (log ratio)” value is -0.459. Next, A41U G42U G93C: -3.1. Next, A2C C72A C115G: -3.29; G10U A27G U59A C98U: -6.42. For the variant C11G C72A C79U A90G C101G A121C U131A, the “polymerase ribozyme fitness (log ratio)” value is 0.276. As for A5G U9C U32C C40G G60U, the figure is -1.01; as for U67G C82A, -6.14.

As for G39A G69A A121U G128U, the “polymerase ribozyme fitness (log ratio)” value was -3.24.

On to C72G C86A U87A, for which the “polymerase ribozyme fitness (log ratio)” value was -4.6.

Take U78A A95G C102A: the “polymerase ribozyme fitness (log ratio)” value was -2.41.

For C56G G107A, the “polymerase ribozyme fitness (log ratio)” value was -5.95. Next, A43U A50U G60A U112A: -4.39; G42A C86A U106G: -5.73. Next, C15U A16C: -2.44; G17U G60U C88U C97U G120A: -2.79. Next, A27U U81C U132C: -4.09; C8G C13A C85U G135U: -1.16. Turning to C40G G113A G122C, the “polymerase ribozyme fitness (log ratio)” value is -1.81. For the variant U55A C73A C104A A118G G122U, the “polymerase ribozyme fitness (log ratio)” value was -1.07. As for G39A C40A, the figure is -3.25; as for A43U G63C A100U C124G, -2.24. Next, G48A C62U: -0.525; U7G C13U A26G G48A C49U G52A A75C: -3.14; A95U: -0.816. Next, A95C: -0.933. For C15U C76A, the “polymerase ribozyme fitness (log ratio)” value is -1.94. As for A43U G71A C115U, the figure is -3.62; as for A41U U130A, -2.03; as for C8U G45A, 0.126. Next, C12U A16C G42U U78A A121C: -0.175.

Consider C12U A46U G51U G60A, for which the “polymerase ribozyme fitness (log ratio)” value is -3.42. On to C3G C115A, for which the “polymerase ribozyme fitness (log ratio)” value is -2.96. With C20G C82A, the “polymerase ribozyme fitness (log ratio)” value is -4.78. Next, U9G G10A U14G A46G G48A A66G C70U: -4.44; C22A A91G: -4.94; A50C C123A: -0.166. As for C40A G48A C70U, the figure is -2.07. Next, C97U C104A: -2.32. Take C12U G47C C97G G120C: the “polymerase ribozyme fitness (log ratio)” value was -3.35. As for G42A U96C, the figure is -2.41.

With C8A G48C C49U C62A C94A, the “polymerase ribozyme fitness (log ratio)” value is -3.22. Next, C28G G69U A121C: 0.386; U38A A50U C62U C123G U133A: -1.2; C20U G44U G93A: -3.1. Next, U7G G10U C15A U54A C72G C104A: -2.9.

On to C101A G117C, for which the “polymerase ribozyme fitness (log ratio)” value is -5.15. Next, U7A C101A: -1.43; A27G G63A C79U: -1.86.

On to G61U C104U A108C A121U, for which the “polymerase ribozyme fitness (log ratio)” value was -2.95.

Consider U126A, for which the “polymerase ribozyme fitness (log ratio)” value was -1.69.

With C8G A90G G113U G117A G127A, the “polymerase ribozyme fitness (log ratio)” value is -6.12. Next, C22G A43U U106A C115A: -1.37. Next, C56A A119G: 0.651; G120U U130C: 0.002; A5G C53A G61A C101U: 0.0588.

As for G58U C70G U106C C124U U130A, the “polymerase ribozyme fitness (log ratio)” value is -2.53. As for C3G G39A G51U G69U C79A U130G, the figure is -3; as for A27U C70U C73G A84G C89G C114G, -6.4; as for C15U A43G C124A, 0.00445. As for G35C C72U, the figure is -4.96; as for U106A U112A, 0.701; as for G42C U96G, -1.41. With A2U A5C C13U G48A G69A, the “polymerase ribozyme fitness (log ratio)” value is -5.8. As for A46C C72U U81A A105C, the figure is -4.47; as for C53G G117A U130C, -1.46.

A16G A84U A90C: the “polymerase ribozyme fitness (log ratio)” value is -2.9. Next, A37C G63A: -0.905; G51A G122A G135U: -4.44; C11G G107U: -3.64. Next, C12U C62G U126A: -2.76; C40G U132A: -0.821; U54A C56U U133A: -0.112. Turning to C12U A26G C56U G69U G117A U125G, the “polymerase ribozyme fitness (log ratio)” value is -4.97. Next, C15U C102U: -3.1; C56G G69C: -4.54; C34A G52U C53U A90U U106A: -4.54. Next, U116G: -1.95. As for G77U A84G C85G, the figure is -2.45. With G52A U78C, the “polymerase ribozyme fitness (log ratio)” value was -0.748. Next, G10A A29U: -1.77. Next, G77U C79A: -2.32; C20A C72U: -2.98; C11G G25C G39A C56A C72G C82A A111C: -7.55. Consider U9C G60U C62U U78G C80A U112C, for which the “polymerase ribozyme fitness (log ratio)” value is -1.95. Next, C11G U54C G60U C86U: -0.56; C11U G36A G63U: -2.37.

Regarding G39U A66U A119G, the “polymerase ribozyme fitness (log ratio)” value is -0.493. Next, C12U G44C A50C: -0.802. As for A2G A18G G19C A83C U92A C114A G128C, the figure is -3.26; as for C8G A100U U106A U116A, -0.749; as for U14A C79G A83U, -5.11. Consider C56U U78C U81G C94U, for which the “polymerase ribozyme fitness (log ratio)” value was -1.62. In the case of G120A C124A, the “polymerase ribozyme fitness (log ratio)” value was 2.09. As to C15G U55A C70A A83U C97U U130C, the “polymerase ribozyme fitness (log ratio)” value was -5.79. In the case of C20G C115U G117C, the “polymerase ribozyme fitness (log ratio)” value was -4.63. Regarding G69A C114A, the “polymerase ribozyme fitness (log ratio)” value is -5.11.

Turning to A83U G93C C104U U116G G122A, the “polymerase ribozyme fitness (log ratio)” value was -4.03.

On to C8A A50U C89A A90G, for which the “polymerase ribozyme fitness (log ratio)” value is -2.46. Next, C8A U9G A16G A24G G39C G60A C64A U92C G110U G113U A121U C123G U126G: -6.69; C49U U59G C72U: -1.12. As for G52A C53U C114U, the figure is -2.38; as for G60A G61A C88A G120C A121U, -2.51; as for C40G, -0.921. For the variant C72U G77U C104A, the “polymerase ribozyme fitness (log ratio)” value is -2.21. As for G113A U130C, the figure is -1.16. As for G61C C79A C80U, the figure is -4.17.
